Test system: Escherichia coli TOP10
Experiment: shrunken log2 fold change of peptide-encoding DNA abundance (4.5 h post-induction vs induction); higher = less antimicrobial activity (less host growth inhibition)
Details: time post-induction: 4.5 h; library: site-saturation at positions 5, 18, 19, 20
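Also: peptides expressed intracellularly from a pBAD plasmid library in pooled LB shake-flask culture, induced with 0.3% L-arabinose, DNA abundance read by NGS, three biological replicates, DESeq2 with apeglm shrinkage.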

Row | Sequence | shrunken log2 fold change
1 | RRIRDRPPRLPRPRPRPWLDPRP | 0.0593
2 | RRIRSRPPRLPRPRPRPLWRPRP | 0.303
3 | RRIRCRPPRLPRPRPRPEFNPRP | -0.0266
4 | RRIRERPPRLPRPRPRPGNRPRP | -0.0677
5 | RRIRRRPPRLPRPRPRPNLYPRP | -0.0246
6 | RRIRFRPPRLPRPRPRPRWMPRP | -0.149
7 | RRIRTRPPRLPRPRPRPWGIPRP | -0.0774
8 | RRIRSRPPRLPRPRPRPRRVPRP | 0.452
9 | RRIRSRPPRLPRPRPRPWKWPRP | 0.0473
10 | RRIRMRPPRLPRPRPRPTDQPRP | 1.46
11 | RRIRCRPPRLPRPRPRPNHVPRP | -0.248
12 | RRIRDRPPRLPRPRPRPRAQPRP | 0.457
13 | RRIRCRPPRLPRPRPRPTQLPRP | 0.338
14 | RRIRVRPPRLPRPRPRPRWHPRP | 0.217
15 | RRIRHRPPRLPRPRPRPVHAPRP | 0.346
16 | RRIRKRPPRLPRPRPRPYVWPRP | -0.36
17 | RRIRPRPPRLPRPRPRPIELPRP | -0.0296
18 | RRIRYRPPRLPRPRPRPIHDPRP | -1.22
19 | RRIRNRPPRLPRPRPRPYAQPRP | -0.55
20 | RRIRIRPPRLPRPRPRPNWFPRP | 0.0822
21 | RRIRQRPPRLPRPRPRPMNFPRP | -0.01
22 | RRIRARPPRLPRPRPRPNAKPRP | 0.262
23 | RRIRSRPPRLPRPRPRPTQLPRP | 0.249
24 | RRIRYRPPRLPRPRPRPGDNPRP | -0.0446
25 | RRIRARPPRLPRPRPRPQPEPRP | 1.04

Row | Sequence | shrunken log2 fold change
26 | RRIRFRPPRLPRPRPRPLRYPRP | -0.192
27 | RRIRTRPPRLPRPRPRPTEWPRP | 0.0143
28 | RRIRERPPRLPRPRPRPEAYPRP | -0.0132
29 | RRIRERPPRLPRPRPRPSWWPRP | 2.26
30 | RRIRWRPPRLPRPRPRPGLAPRP | 0.505
31 | RRIRARPPRLPRPRPRPWHLPRP | -0.0312
32 | RRIRSRPPRLPRPRPRPEREPRP | -0.0693
33 | RRIRSRPPRLPRPRPRPQPWPRP | 0.366
34 | RRIRARPPRLPRPRPRPAEYPRP | -0.0257
35 | RRIRWRPPRLPRPRPRPETIPRP | 0.322
36 | RRIRPRPPRLPRPRPRPWVGPRP | 0.0889
37 | RRIRKRPPRLPRPRPRPGEQPRP | -0.0435
38 | RRIRVRPPRLPRPRPRPYLPPRP | -0.453
39 | RRIRMRPPRLPRPRPRPYNAPRP | -0.439
40 | RRIRYRPPRLPRPRPRPMTEPRP | -0.0202
41 | RRIRSRPPRLPRPRPRPCKHPRP | -0.216
42 | RRIRYRPPRLPRPRPRPLNRPRP | -1.92
43 | RRIRVRPPRLPRPRPRPIPFPRP | 0.0609
44 | RRIRSRPPRLPRPRPRPFWAPRP | -0.00411
45 | RRIRDRPPRLPRPRPRPDVCPRP | 0.833
46 | RRIRCRPPRLPRPRPRPTNTPRP | -0.364
47 | RRIRERPPRLPRPRPRPSMGPRP | -0.817
48 | RRIRERPPRLPRPRPRPWFKPRP | -0.0858
49 | RRIRKRPPRLPRPRPRPNKKPRP | -0.279
50 | RRIRSRPPRLPRPRPRPTGGPRP | 0.259

Row | Sequence | shrunken log2 fold change
51 | RRIRTRPPRLPRPRPRPQLTPRP | -0.0274
52 | RRIRVRPPRLPRPRPRPLLTPRP | -0.0362
53 | RRIRQRPPRLPRPRPRPVILPRP | -0.0369
54 | RRIRIRPPRLPRPRPRPTNDPRP | -0.246
55 | RRIRERPPRLPRPRPRPVVHPRP | -0.0247
56 | RRIRRRPPRLPRPRPRPERCPRP | 0.322
57 | RRIRHRPPRLPRPRPRPFIQPRP | -0.577
58 | RRIRTRPPRLPRPRPRPGYGPRP | -0.139
59 | RRIRKRPPRLPRPRPRPYTFPRP | -0.264
60 | RRIRRRPPRLPRPRPRPMCFPRP | -0.0162
61 | RRIRNRPPRLPRPRPRPNVHPRP | -0.309
62 | RRIRARPPRLPRPRPRPEVHPRP | 3.57
63 | RRIRVRPPRLPRPRPRPKQVPRP | -0.0801
64 | RRIRHRPPRLPRPRPRPAFWPRP | 0.741
65 | RRIRPRPPRLPRPRPRPKCVPRP | 0.0688
66 | RRIRDRPPRLPRPRPRPHVYPRP | -0.0179
67 | RRIRFRPPRLPRPRPRPWNIPRP | -0.0965
68 | RRIRRRPPRLPRPRPRPETGPRP | 0.304
69 | RRIRPRPPRLPRPRPRPEQRPRP | 0.124
70 | RRIRYRPPRLPRPRPRPKHDPRP | -0.648
71 | RRIRYRPPRLPRPRPRPASYPRP | -0.156
72 | RRIRTRPPRLPRPRPRPKGCPRP | 0.00952
73 | RRIRGRPPRLPRPRPRPNVEPRP | 0.183
74 | RRIRLRPPRLPRPRPRPEDCPRP | 0.0408
75 | RRIRIRPPRLPRPRPRPARAPRP | 0.307

Row | Sequence | shrunken log2 fold change
76 | RRIRYRPPRLPRPRPRPNLPPRP | -0.479
77 | RRIRGRPPRLPRPRPRPRDRPRP | 0.789
78 | RRIRKRPPRLPRPRPRPGYGPRP | 0.13
79 | RRIRERPPRLPRPRPRPSQSPRP | -0.346
80 | RRIRPRPPRLPRPRPRPKCCPRP | 0.228
81 | RRIRPRPPRLPRPRPRPPWCPRP | 0.0891
82 | RRIRQRPPRLPRPRPRPAGPPRP | -0.000608
83 | RRIRARPPRLPRPRPRPFTNPRP | -0.273
84 | RRIRIRPPRLPRPRPRPCILPRP | -0.55
85 | RRIRSRPPRLPRPRPRPATWPRP | -0.136
86 | RRIRKRPPRLPRPRPRPPDWPRP | 1.48
87 | RRIRYRPPRLPRPRPRPKLIPRP | -0.775
88 | RRIRTRPPRLPRPRPRPQTYPRP | -0.0726
89 | RRIRHRPPRLPRPRPRPSKEPRP | -0.0697
90 | RRIRTRPPRLPRPRPRPKPNPRP | 0.186
91 | RRIRSRPPRLPRPRPRPVEPPRP | -0.0608
92 | RRIRSRPPRLPRPRPRPGTMPRP | -0.315
93 | RRIRCRPPRLPRPRPRPNPTPRP | 0.211
94 | RRIRPRPPRLPRPRPRPKLTPRP | 0.421
95 | RRIRHRPPRLPRPRPRPRMAPRP | 0.0651
96 | RRIRVRPPRLPRPRPRPGAHPRP | 0.0262
97 | RRIRWRPPRLPRPRPRPTMIPRP | -0.0926
98 | RRIRHRPPRLPRPRPRPEMDPRP | 0.015
99 | RRIRARPPRLPRPRPRPSCQPRP | 0.133
100 | RRIRNRPPRLPRPRPRPETLPRP | 0.373

Row | Sequence | shrunken log2 fold change
101 | RRIRKRPPRLPRPRPRPVGMPRP | 0.554
102 | RRIRRRPPRLPRPRPRPNHYPRP | -0.314
103 | RRIRTRPPRLPRPRPRPTRSPRP | -0.111
104 | RRIRHRPPRLPRPRPRPGQPPRP | 0.0384
105 | RRIRVRPPRLPRPRPRPLKWPRP | -0.235
106 | RRIRERPPRLPRPRPRPYIYPRP | -0.254
107 | RRIRPRPPRLPRPRPRPRGEPRP | 0.646
108 | RRIRLRPPRLPRPRPRPATCPRP | -0.597
109 | RRIRKRPPRLPRPRPRPDMWPRP | 0.245
110 | RRIRTRPPRLPRPRPRPDYWPRP | -0.149
111 | RRIRNRPPRLPRPRPRPQGDPRP | 4.25
112 | RRIRFRPPRLPRPRPRPAGYPRP | 0.00702
113 | RRIRARPPRLPRPRPRPHIFPRP | 0.141
114 | RRIRVRPPRLPRPRPRPYSTPRP | -0.00968
115 | RRIRPRPPRLPRPRPRPQPNPRP | 0.185
116 | RRIRIRPPRLPRPRPRPQFWPRP | 0.133
117 | RRIRCRPPRLPRPRPRPSLKPRP | -0.23
118 | RRIRFRPPRLPRPRPRPNLYPRP | -0.716
119 | RRIRCRPPRLPRPRPRPGRTPRP | -0.106
120 | RRIRMRPPRLPRPRPRPDVEPRP | 3.52
121 | RRIRVRPPRLPRPRPRPSMCPRP | -0.528
122 | RRIRIRPPRLPRPRPRPWNPPRP | -0.106
123 | RRIRKRPPRLPRPRPRPVHHPRP | -0.0438
124 | RRIRKRPPRLPRPRPRPFDDPRP | -0.131
125 | RRIRVRPPRLPRPRPRPNNMPRP | -0.537

Row | Sequence | shrunken log2 fold change
126 | RRIRFRPPRLPRPRPRPPPDPRP | 1.3
127 | RRIRRRPPRLPRPRPRPTYKPRP | -0.163
128 | RRIRARPPRLPRPRPRPFNMPRP | -0.201
129 | RRIRYRPPRLPRPRPRPFCRPRP | -0.228
130 | RRIRTRPPRLPRPRPRPCNRPRP | -0.144
131 | RRIRCRPPRLPRPRPRPHFQPRP | -0.511
132 | RRIRVRPPRLPRPRPRPKPLPRP | 0.196
133 | RRIRQRPPRLPRPRPRPGSWPRP | 0.298
134 | RRIRKRPPRLPRPRPRPNWRPRP | 1.32
135 | RRIRGRPPRLPRPRPRPQGGPRP | 0.127
136 | RRIRWRPPRLPRPRPRPGEVPRP | -0.0252
137 | RRIRLRPPRLPRPRPRPHNIPRP | -0.049
138 | RRIRYRPPRLPRPRPRPWIRPRP | -0.371
139 | RRIRNRPPRLPRPRPRPKNQPRP | -0.54
140 | RRIRLRPPRLPRPRPRPPKNPRP | 0.43
141 | RRIRARPPRLPRPRPRPWTCPRP | 0.0519
142 | RRIRLRPPRLPRPRPRPTSWPRP | 0.199
143 | RRIRWRPPRLPRPRPRPFYVPRP | -0.348
144 | RRIRMRPPRLPRPRPRPMFFPRP | -0.0106
145 | RRIRDRPPRLPRPRPRPEIAPRP | 1.31
146 | RRIRFRPPRLPRPRPRPVSTPRP | -0.476
147 | RRIRQRPPRLPRPRPRPKKEPRP | 0.00476
148 | RRIRHRPPRLPRPRPRPQPNPRP | -0.168
149 | RRIRARPPRLPRPRPRPVWIPRP | -0.0967
150 | RRIRHRPPRLPRPRPRPKKPPRP | -0.125
